One molecule from US20220289825A1 (NANJING SHUNXIN PHARMACEUTICALS CO LTD OF CHIATAI TIANQING …, published 2022) can be followed below.

“And” between values parts separate entries of the source, which are not always exact repeats. Equal entries are not always repeated.

For this experiment, the target named is PD-L1 on CHO-PDL1-CD3L cells (UniProt Q9NZQ7 19-290, limits assumed). Description: cell-based or functional assay.
Chain of PD-L1 on CHO-PDL1-CD3L cells (Q9NZQ7 19-290 limits assumed): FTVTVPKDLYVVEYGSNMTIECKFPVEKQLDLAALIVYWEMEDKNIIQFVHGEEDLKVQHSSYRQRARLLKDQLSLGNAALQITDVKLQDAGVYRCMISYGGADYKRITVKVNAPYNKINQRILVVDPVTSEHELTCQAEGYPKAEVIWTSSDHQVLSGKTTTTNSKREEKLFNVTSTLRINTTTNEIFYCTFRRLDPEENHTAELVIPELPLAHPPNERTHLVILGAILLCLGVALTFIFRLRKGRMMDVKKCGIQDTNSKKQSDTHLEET

B1: PD-L1 antibody (humanized 5G11-IgG1 antibody of CN107001463) (antibody, V domains shown)
VH: QITLKESGPTLVKPTQTLTLTCTVSGFSLSTYGVHWIRQPPGKALEWLGVIWRGVTTDYNAAFMSRLTITKDNSKNQVVLTMNNMDPVDTATYYCARLGFYAMDYWGQGTLVTVSS
VL: DIQMTQSPSSLSASVGDRVTITCKASQSVSNDVAWYQQKPGKAPKLLIYYAANRYTGVPDRFSGSGYGTDFTFTISSLQPEDIATYFCQQDYTSPYTFGQGTKLEIKR
For B1, the “Biological activity (EC50 of reference sample/EC50 of test sample x 100%)” value amounted to 100%; the “EC50 (nmol/L), reporter gene assay (CHO-PDL1-CD3L + Jurkat-PD-1-NFAT, luciferase RLU)” value was 4.6 nmol/L and 4.15 nmol/L.
